The results in this text go back to article PMC3155019, “Dynamics of the Phosphoinositide 3-Kinase p110δ Interaction with p85α and Membranes Reveals Aspects of Regulation Distinct from p110α” (Structure(London, England:1993), 2011).

Non-standard residues stand in square brackets, D forms with d. No end group written: not given here. pY = N[C@@H](Cc1ccc(OP(=O)(O)O)cc1)C(=O)O

The test addresses p110δ+p85α nicSH2 complex (human | , UniProt O00329 1-1044; P27986 322-724). Description: cell-based or functional assay.

Chain of p110δ+p85α nicSH2 complex (O00329 whole entry, stated change not applied, chain 1 of 2): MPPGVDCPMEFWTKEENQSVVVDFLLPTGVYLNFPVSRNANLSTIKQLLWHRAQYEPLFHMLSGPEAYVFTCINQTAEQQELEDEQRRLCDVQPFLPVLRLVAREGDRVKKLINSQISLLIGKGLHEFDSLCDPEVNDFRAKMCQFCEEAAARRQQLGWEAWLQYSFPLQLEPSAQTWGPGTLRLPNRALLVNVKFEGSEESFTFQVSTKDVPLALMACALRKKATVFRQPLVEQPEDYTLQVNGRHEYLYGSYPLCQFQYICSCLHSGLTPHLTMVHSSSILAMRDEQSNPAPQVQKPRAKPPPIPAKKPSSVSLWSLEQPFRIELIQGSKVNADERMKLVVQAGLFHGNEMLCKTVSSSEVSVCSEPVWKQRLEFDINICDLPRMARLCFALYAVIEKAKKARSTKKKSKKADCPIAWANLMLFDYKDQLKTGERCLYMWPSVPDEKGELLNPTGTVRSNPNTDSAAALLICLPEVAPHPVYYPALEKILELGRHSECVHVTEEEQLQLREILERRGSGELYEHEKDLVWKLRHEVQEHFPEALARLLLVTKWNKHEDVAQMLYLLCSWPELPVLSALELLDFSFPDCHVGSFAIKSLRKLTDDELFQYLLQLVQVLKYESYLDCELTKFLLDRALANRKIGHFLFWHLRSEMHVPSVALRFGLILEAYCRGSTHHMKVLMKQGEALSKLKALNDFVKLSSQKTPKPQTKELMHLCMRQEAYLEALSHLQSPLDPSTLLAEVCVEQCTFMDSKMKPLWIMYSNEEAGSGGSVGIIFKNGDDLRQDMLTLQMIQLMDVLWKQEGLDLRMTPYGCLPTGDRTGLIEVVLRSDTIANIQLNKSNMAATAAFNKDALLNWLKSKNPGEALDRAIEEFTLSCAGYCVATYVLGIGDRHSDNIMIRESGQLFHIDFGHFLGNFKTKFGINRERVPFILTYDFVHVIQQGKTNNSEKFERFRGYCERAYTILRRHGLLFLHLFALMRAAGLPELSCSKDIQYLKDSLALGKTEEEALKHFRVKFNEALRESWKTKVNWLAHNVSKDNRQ
Chain of p110δ+p85α nicSH2 complex (P27986 322-724, stated change not applied, chain 2 of 2): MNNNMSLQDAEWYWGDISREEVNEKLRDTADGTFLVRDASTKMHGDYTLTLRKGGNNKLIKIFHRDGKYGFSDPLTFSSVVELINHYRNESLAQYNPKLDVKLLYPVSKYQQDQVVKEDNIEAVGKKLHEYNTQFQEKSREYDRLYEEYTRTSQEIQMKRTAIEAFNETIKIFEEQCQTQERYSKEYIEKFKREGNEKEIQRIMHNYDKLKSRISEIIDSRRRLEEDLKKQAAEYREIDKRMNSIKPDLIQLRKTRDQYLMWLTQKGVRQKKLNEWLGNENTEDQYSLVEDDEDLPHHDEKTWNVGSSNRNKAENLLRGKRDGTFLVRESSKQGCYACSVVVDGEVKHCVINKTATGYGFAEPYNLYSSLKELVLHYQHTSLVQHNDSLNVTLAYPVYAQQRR

For ESDGG[pY]MDMSKDESID[pY]VPMLDMKGDIKYADIE [PDGFR bis-phosphorylated pY peptide (residues 735–767, with pY740 and pY751)], the “activation of the lipid kinase activity of p110δ+nicSH2 by 10 μM PDGFR pY” value is around 13 fold.
